Experiment [1] deals with T1, human full-length VWF (human, UniProt P04275 764-2813). Put plainly: SPR Biacore T200, antibody captured on Protein A chip, full-length VWF as analyte, single-cycle kinetics. (Surface plasmon resonance follows binding to a sensor surface in real time, without labels.)
Method: (§1) Antibodies were captured on Protein A sensor chip. The system was purged using running buffer (10 mM HEPES pH 7.4, 300 mM NaCl, 3 mM EDTA, 0.05% P20) and a series S Protein A chip was docked in the Biacore T200. The surface was conditioned with 10 mM glycine-HCl pH 1.5 regeneration solution (3 injections). Each antibody was diluted to ˜0.8 μg/ml in running buffer to capture ˜350 RU on flow cells 2, 3 and 4 (flow cell 1 used as in-line reference cell). Single-cycle kinetic analysis of human full-length VWF binding to antibodies was performed using the following parameters:
For experiment [2], the target named is T1, human full-length VWF. Put plainly: SPR, Biacore T200, antibody captured on Protein A, full-length VWF as analyte, single-cycle kinetics.
Method: as §1
Experiment [3] has as its target T1, human full-length VWF. The description is as above. The source holds these as a separate data set.
Method: as §1

Where two headings read alike, the source gives them in different places.

B1: 4-H3_H1_L0 (antibody, human IgG1, kappa)
heavy: not shown
light: DIQMTQSPSSLSASVGDRVTITCLASEDIASGISWYQQKPGKAPKLLIYGASNLESGVPSRFSGSGSGTDFTLTISSLQPEDFATYYCLGGYSFSSNGLTFGGGTKVEIKTVAAPSVFIFPPSDEQLKSGTASVVCLLNNFYPREAKVQWKVDNALQSGNSQESVTEQDSKDSTYSLSSTLTLSKADYEKHKVYACEVTHQGLSSPVTKSFNRGEC
notes: humanised, human IgG1 kappa
Broadly, the Kd is the concentration at which binding is half-saturated. Low readings indicate tighter binding, high ones weaker binding. One may read the koff as the first-order rate constant of dissociation. Low values mean a long-lived complex, high ones a short-lived complex. Broadly, the kon is a measure of how fast the partners come together. A lower kon goes with slow association. Molecule B1 had a Kd in experiment [1] of under 1000 pM. Also, in experiment [2], binding was characterised by a dissociation constant (Kd) of 18.7 pM, the koff is 2.49e-06 s⁻¹ and the kon stood at 134000 M⁻¹ s⁻¹.

B2: 4-H3_H5_L1 (antibody, human IgG1, kappa)
heavy: not shown
light: DYQMTQSPSSLSASVGDRVTITCLASEDIASGISWYQQKPGKAPKLLIYGASNLESGVPSRFSGSGSGTDYTLTISSLQPEDFATYYCLGGYSFSSNGLTFGGGTKVEIKTVAAPSVFIFPPSDEQLKSGTASVVCLLNNFYPREAKVQWKVDNALQSGNSQESVTEQDSKDSTYSLSSTLTLSKADYEKHKVYACEVTHQGLSSPVTKSFNRGEC
notes: humanised, human IgG1 kappa
Take B2: in experiment [3], binding was put at a Kd of 0.575 pM, the koff is 5.95e-08 s⁻¹ and the kon was 103000 M⁻¹ s⁻¹. This molecule showed a Kd in experiment [1] of under 1000 pM.

B3: 4-H3_H2_L1 (antibody, human IgG1, kappa)
heavy: not shown
light: DYQMTQSPSSLSASVGDRVTITCLASEDIASGISWYQQKPGKAPKLLIYGASNLESGVPSRFSGSGSGTDYTLTISSLQPEDFATYYCLGGYSFSSNGLTFGGGTKVEIKTVAAPSVFIFPPSDEQLKSGTASVVCLLNNFYPREAKVQWKVDNALQSGNSQESVTEQDSKDSTYSLSSTLTLSKADYEKHKVYACEVTHQGLSSPVTKSFNRGEC
notes: humanised, human IgG1 kappa
Regarding B3, the Kd in experiment [1] was under 1000 pM. In experiment [2], this molecule displayed a Kd of 4.53 pM, a koff of 1.36e-07 s⁻¹ and a kon of 29900 M⁻¹ s⁻¹.

B4: 4-H3_H0_L1 rep (antibody, human IgG1, kappa, V domains shown)
VH: QVQLVESGGGVVQPGRSLRLSCAASGFTFSSNAMNWVRQAPGKGLEWVAGIYGHDTSYYAAWAKGRFTISRDNSKNTLYLQMNSLRAEDTAVYYCARGFIYFDIWGQGTLVTVSS
VL: DYQMTQSPSSLSASVGDRVTITCLASEDIASGISWYQQKPGKAPKLLIYGASNLESGVPSRFSGSGSGTDYTLTISSLQPEDFATYYCLGGYSFSSNGLTFGGGTKVEIKT
notes: humanised, human IgG1 kappa
As to B4, in experiment [1], the dissociation constant (Kd) was under 1000 pM. In experiment [2], binding was put at a Kd of 4.12 pM, the dissociation rate constant (koff) came out at 1.52e-07 s⁻¹ and the kon worked out at 36900 M⁻¹ s⁻¹.

B5: 4-H3_H2_L0 (antibody, human IgG1, kappa)
heavy: not shown
light: DIQMTQSPSSLSASVGDRVTITCLASEDIASGISWYQQKPGKAPKLLIYGASNLESGVPSRFSGSGSGTDFTLTISSLQPEDFATYYCLGGYSFSSNGLTFGGGTKVEIKTVAAPSVFIFPPSDEQLKSGTASVVCLLNNFYPREAKVQWKVDNALQSGNSQESVTEQDSKDSTYSLSSTLTLSKADYEKHKVYACEVTHQGLSSPVTKSFNRGEC
notes: humanised, human IgG1 kappa
In experiment [1], B5 gave a dissociation constant Kd of under 1000 pM. In experiment [2], this molecule gave a Kd of 27.3 pM, a koff of 9.13e-07 s⁻¹ and a kon of 33500 M⁻¹ s⁻¹.

B6: 4-H3_H3_L0 (antibody, human IgG1, kappa, V domains shown)
VH: QVQLVESGGGVVQPGRSLRLSCAASGIDLTSNAMNWVRQAPGKGLEWIGGIYGHDTSYYAAWAKGRFTISRDNSKNTVYLQMNSLRAEDTAVYYCARGFIYFDIWGQGTLVTVSS
VL: DIQMTQSPSSLSASVGDRVTITCLASEDIASGISWYQQKPGKAPKLLIYGASNLESGVPSRFSGSGSGTDFTLTISSLQPEDFATYYCLGGYSFSSNGLTFGGGTKVEIKT
notes: humanised, human IgG1 kappa
Molecule B6 showed an equilibrium dissociation constant (Kd) in experiment [1] of under 1000 pM. In experiment [2], this molecule registered a Kd of 1.92 pM, a dissociation rate constant (koff) of 1.45e-07 s⁻¹ and a kon of 75600 M⁻¹ s⁻¹.

B7: 4-H3_H1_L1 (antibody, human IgG1, kappa)
heavy: not shown
light: DYQMTQSPSSLSASVGDRVTITCLASEDIASGISWYQQKPGKAPKLLIYGASNLESGVPSRFSGSGSGTDYTLTISSLQPEDFATYYCLGGYSFSSNGLTFGGGTKVEIKTVAAPSVFIFPPSDEQLKSGTASVVCLLNNFYPREAKVQWKVDNALQSGNSQESVTEQDSKDSTYSLSSTLTLSKADYEKHKVYACEVTHQGLSSPVTKSFNRGEC
notes: humanised, human IgG1 kappa
In experiment [1], B7 gave a Kd of under 1000 pM. For the same molecule, in experiment [2], the Kd was 13.8 pM, the koff was 4.27e-07 s⁻¹ and the on-rate constant (kon) turned out to be 31000 M⁻¹ s⁻¹.

B8: 4-H3_H5_L0 (antibody, human IgG1, kappa)
heavy: not shown
light: DIQMTQSPSSLSASVGDRVTITCLASEDIASGISWYQQKPGKAPKLLIYGASNLESGVPSRFSGSGSGTDFTLTISSLQPEDFATYYCLGGYSFSSNGLTFGGGTKVEIKTVAAPSVFIFPPSDEQLKSGTASVVCLLNNFYPREAKVQWKVDNALQSGNSQESVTEQDSKDSTYSLSSTLTLSKADYEKHKVYACEVTHQGLSSPVTKSFNRGEC
notes: humanised, human IgG1 kappa
In the case of B8, in experiment [3], the affinity, expressed as Kd, was 0.366 pM; the koff is 4.93e-08 s⁻¹; the kon was 135000 M⁻¹ s⁻¹. The molecule further came in with a Kd in experiment [1] of under 1000 pM.

B9: 4-H3_H4_L1 (antibody, human IgG1, kappa, V domains shown)
VH: QVQLVESGGGVVQPGRSLRLSCAASGIDLTSNAMNWVRQAPGKGLEWVAGIYGHDTSYYAAWAKGRFTISRDNSKNTLYLQMNSLRAEDTATYFCARGFIYFDIWGQGTLVTVSS
VL: DYQMTQSPSSLSASVGDRVTITCLASEDIASGISWYQQKPGKAPKLLIYGASNLESGVPSRFSGSGSGTDYTLTISSLQPEDFATYYCLGGYSFSSNGLTFGGGTKVEIKT
notes: humanised, human IgG1 kappa
Regarding B9, the dissociation constant Kd in experiment [1] is under 1000 pM. In experiment [2], this molecule had a Kd of 0.14 pM, a koff of 6.25e-09 s⁻¹ and a kon of 44500 M⁻¹ s⁻¹.

B10: 4-H3_H3_L1 (antibody, human IgG1, kappa, V domains shown)
VH: QVQLVESGGGVVQPGRSLRLSCAASGIDLTSNAMNWVRQAPGKGLEWIGGIYGHDTSYYAAWAKGRFTISRDNSKNTVYLQMNSLRAEDTAVYYCARGFIYFDIWGQGTLVTVSS
VL: DYQMTQSPSSLSASVGDRVTITCLASEDIASGISWYQQKPGKAPKLLIYGASNLESGVPSRFSGSGSGTDYTLTISSLQPEDFATYYCLGGYSFSSNGLTFGGGTKVEIKT
notes: humanised, human IgG1 kappa
B10 came in with a Kd in experiment [1] of under 1000 pM. Also, in experiment [2], binding was characterised by a dissociation constant (Kd) of 1.49 pM, the off-rate constant (koff) amounted to 1.72e-07 s⁻¹ and the kon worked out at 115000 M⁻¹ s⁻¹.

B11: 4-H3_H4_L0 (antibody, human IgG1, kappa, V domains shown)
VH: QVQLVESGGGVVQPGRSLRLSCAASGIDLTSNAMNWVRQAPGKGLEWVAGIYGHDTSYYAAWAKGRFTISRDNSKNTLYLQMNSLRAEDTATYFCARGFIYFDIWGQGTLVTVSS
VL: DIQMTQSPSSLSASVGDRVTITCLASEDIASGISWYQQKPGKAPKLLIYGASNLESGVPSRFSGSGSGTDFTLTISSLQPEDFATYYCLGGYSFSSNGLTFGGGTKVEIKT
notes: humanised, human IgG1 kappa
Take B11: in experiment [1], the Kd is under 1000 pM. Further, in experiment [2], the affinity, expressed as Kd, was 19.3 pM; the off-rate constant (koff) amounted to 5.24e-07 s⁻¹; the kon was 27100 M⁻¹ s⁻¹.

B12: 1-D5_H2_L1 (antibody, human IgG1, kappa, V domains shown)
VH: QQQLVESGGGVVQPGRSLRLSCAASGFSLNNYIMGWVRQAPGKGLEYIGIISTGGSTYYASWAKGRFTISRDSNTMYLQMNSLRAEDTATYFCARGGSSAGAGFNIWGQGTLVTVSS
VL: DIQMTQSPSSLSASVGDRVTITCQASQSINSGLAWYQQKPGKAPKRLIYKASTLASGVPSRFSGSGSGTDFTLTISSLQPEDFATYYCQSYHYISANGATFGGGTKVEIKT
notes: humanised, human IgG1 kappa
In experiment [1], B12 registered a Kd of under 1000 pM. In experiment [2], the dissociation constant (Kd) was found to be 38 pM, the koff is 1.13e-05 s⁻¹ and the kon was 298000 M⁻¹ s⁻¹.

B13: 1-D5_H1_L1 (antibody, human IgG1, kappa, V domains shown)
VH: QVQLVESGGGVVQPGRSLRLSCAASGFSLNNYIMGWVRQAPGKGLEWVAIISTGGSTYYASWAKGRFTISRDNSKNTLYLQMNSLRAEDTAVYYCARGGSSAGAGFNIWGQGTLVTVSS
VL: DIQMTQSPSSLSASVGDRVTITCQASQSINSGLAWYQQKPGKAPKRLIYKASTLASGVPSRFSGSGSGTDFTLTISSLQPEDFATYYCQSYHYISANGATFGGGTKVEIKT
notes: humanised, human IgG1 kappa
B13: the Kd in experiment [1] is under 1000 pM. Further, in experiment [2], the Kd was 0.0946 pM, the koff was found to be 6.72e-09 s⁻¹ and the kon is 71000 M⁻¹ s⁻¹.

B14: 1-D5_H1_L0 (antibody, human IgG1, kappa, V domains shown)
VH: QVQLVESGGGVVQPGRSLRLSCAASGFSLNNYIMGWVRQAPGKGLEWVAIISTGGSTYYASWAKGRFTISRDNSKNTLYLQMNSLRAEDTAVYYCARGGSSAGAGFNIWGQGTLVTVSS
VL: DIQMTQSPSSLSASVGDRVTITCQASQSINSGLAWYQQKPGKAPKLLIYKASTLASGVPSRFSGSGSGTDFTLTISSLQPEDFATYYCQSYHYISANGATFGGGTKVEIKT
notes: humanised, human IgG1 kappa
Consider B14, for which the Kd in experiment [1] was under 1000 pM. In experiment [2], this molecule came in with a Kd of 1.6 pM, a koff of 1.25e-07 s⁻¹ and a kon of 77900 M⁻¹ s⁻¹.

B15: 1-D5_H0_L1 (antibody, human IgG1, kappa, V domains shown)
VH: QVQLVESGGGVVQPGRSLRLSCAASGFTFSNYIMGWVRQAPGKGLEWVAIISTGGSTYYASWAKGRFTISRDNSKNTLYLQMNSLRAEDTAVYYCARGGSSAGAGFNIWGQGTLVTVSS
VL: DIQMTQSPSSLSASVGDRVTITCQASQSINSGLAWYQQKPGKAPKRLIYKASTLASGVPSRFSGSGSGTDFTLTISSLQPEDFATYYCQSYHYISANGATFGGGTKVEIKT
notes: humanised, human IgG1 kappa
In turn, B15 had a Kd in experiment [1] of under 1000 pM. In experiment [2], this molecule returned a dissociation constant Kd of 1.77 pM, a koff of 2.99e-07 s⁻¹ and a kon of 169000 M⁻¹ s⁻¹.

B16: 1-D5_H2_L0 (antibody, human IgG1, kappa, V domains shown)
VH: QQQLVESGGGVVQPGRSLRLSCAASGFSLNNYIMGWVRQAPGKGLEYIGIISTGGSTYYASWAKGRFTISRDSNTMYLQMNSLRAEDTATYFCARGGSSAGAGFNIWGQGTLVTVSS
VL: DIQMTQSPSSLSASVGDRVTITCQASQSINSGLAWYQQKPGKAPKLLIYKASTLASGVPSRFSGSGSGTDFTLTISSLQPEDFATYYCQSYHYISANGATFGGGTKVEIKT
notes: humanised, human IgG1 kappa
For B16, the Kd in experiment [1] was under 1000 pM. Besides, in experiment [2], the affinity, expressed as Kd, was 7.66 pM; the koff came to 1.06e-06 s⁻¹; the kon amounted to 138000 M⁻¹ s⁻¹.

B17: 1-D5_H0_L0 (antibody, human IgG1, kappa, V domains shown)
VH: QVQLVESGGGVVQPGRSLRLSCAASGFTFSNYIMGWVRQAPGKGLEWVAIISTGGSTYYASWAKGRFTISRDNSKNTLYLQMNSLRAEDTAVYYCARGGSSAGAGFNIWGQGTLVTVSS
VL: DIQMTQSPSSLSASVGDRVTITCQASQSINSGLAWYQQKPGKAPKLLIYKASTLASGVPSRFSGSGSGTDFTLTISSLQPEDFATYYCQSYHYISANGATFGGGTKVEIKT
notes: humanised, human IgG1 kappa
The molecule B17 registered a Kd in experiment [1] of under 1000 pM. In addition, in experiment [2], the Kd came to 0.15 pM, the koff was 1.13e-08 s⁻¹ and the kon is 75200 M⁻¹ s⁻¹.

The values above are taken from patent publication US20240228660A1 (IP2IPO INNOVATIONS, published 2024).
